2 molecules from PMC4895442, “Geometrical assembly of ultrastable protein templates for nanomaterials” (Nature Communications, 2016) can be followed below.

Data set [1] concerns the target TERM-foldon three-way connector (Methanocaldococcus jannaschii | bacteriophage T4) (UniProt P10104). Nature of the data set: SDS-PAGE without heating; refolded three-way connector dialyzed against PBS, SDS loading buffer added, incubated at 25-100 °C for 5 min, 10-20% gradient SDS-PAGE; the foldon trimer resists SDS.
Data set [2] concerns the molecule itself. Nature of the data set: negative-stain TEM; proteins refolded together at varying molar ratios, diluted in PBS to 20 μg/ml, on carbon/formvar grids, 2% uranyl acetate.

Turning to “TERM-foldon three-way connector (from UniProt P10104 2-81)”, the stoichiometry N (commonly a count of units in the complex or per binding partner) in data set [1] is 3.

B1: γ-prefoldin (γPFD), wild type (natural protein, Methanocaldococcus jannaschii, UniProt Q58064 1-147, looked up)
chain: MVNEVIDINEAVRAYIAQIEGLRAEIGRLDATIATLRQSLATLKSLKTLGEGKTVLVPVGSIAQVEMKVEKMDKVVVSVGQNISAELEYEEALKYIEDEIKKLLTFRLVLEQAIAELYAKIEDLIAEAQQTSEEEKAEEEENEEKAE
notes: γ-prefoldin (γPFD), filamentous prefoldin-family chaperone of the hyperthermophile Methanocaldococcus jannaschii; wild type; Assembles into filaments of variable length through the β-sheets X1 and X2; also called γPFD filaments; γPFD subunits
B1: the binding result in data set [2] is reported as “binds”.
